Patent US20060257406A1 (published 2006)
Positions count from the first letter of the chain named.

B1: TAR1-5d6 (other)
chain: DIQMTQSPSSLSASVGDRVTITCRASQSIFMNLLWYQQKPGKAPKLLIYNASVLQSGVPSRFSGSGSGTDFTLTISSLQPEDFATYYCQQVVWRPFTFGQGTKVEIKRGGGGSGGGGSGGGGSGGGGSGGGGSGGGGSGGGGSDIQMTQSPSSLSASVGDRVTITCRASQSIYDALEWYQQKPGKAPKLLIYTASRLQSGVPSRFSGSGSGTDFTLTISSLQPEDFATYYCQQVMQRPVTFGQGTKVEIK
notes: FPLC purified large dimeric species; also called dimer 6
B2: TAR1-5d1 (other)
chain: DIQMTQSPSSLSASVGDRVTITCRASQSIFMNLLWYQQKPGKAPKLLIYNASVLQSGVPSRFSGSGSGTDFTLTISSLQPEDFATYYCQQVVWRPFTFGQGTKVEIKRGGGGSGGGGSGGGGSDIQMTQSPSSLSASVGDRVTITCRASQSIYDALEWYQQKPGKAPKLLIYTASRLQSGVPSRFSGSGSGTDFTLTISSLQPEDFATYYCQQVMQRPVTFGQGTKVEIK
notes: dAb-linker-dAb dimer; FPLC purified small dimeric species; also called dimer 1
B3: TAR1-5d5 (other)
chain: DIQMTQSPSSLSASVGDRVTITCRASQSIFMNLLWYQQKPGKAPKLLIYNASVLQSGVPSRFSGSGSGTDFTLTISSLQPEDFATYYCQQVVWRPFTFGQGTKVEIKRGGGGSGGGGSGGGGSGGGGSGGGGSDIQMTQSPSSLSASVGDRVTITCRASQSIYDALEWYQQKPGKAPKLLIYTASRLQSGVPSRFSGSGSGTDFTLTISSLQPEDFATYYCQQVMQRPVTFGQGTKVEIK
notes: FPLC purified large dimeric species; also called dimer 5
B4: TAR1-5d4 (other)
chain: DIQMTQSPSSLSASVGDRVTITCRASQSIFMNLLWYQQKPGKAPKLLIYNASVLQSGVPSRFSGSGSGTDFTLTISSLQPEDFATYYCQQVVWRPFTFGQGTKVEIKRGGGGSGGGGSGGGGSGGGGSGGGGSDIQMTQSPSSLSASVGDRVTITCRASQSVKEFLWWYQQKPGKAPKLLIYMASNLQSGVPSRFSGSGSGTDFTLTISSLQPEDFATYYCQQKFKLPRTFGQGTKVEIK
notes: FPLC purified small dimeric species; also called TAR1-5 dimer 4
B5: TAR1-5-19 d1 (other)
chain: B2 chain with F30D, M31S, N32Y, L34H, N50S, V53E
B6: TAR1-5-19CH/dAb1 CK (Fab, V domains shown)
V domain 1: DIQMTQSPSSLSASVGDRVTITCRASQSIDSYLHWYQQKPGKAPKLLIYSASELQSGVPSRFSGSGSGTDFTLTISSLQPEDFATYYCQQVVWRPFTFGQGTKVEIK
V domain 2: B6 V domain 1 with D30Y, S31D, Y32A, H34E, S50T, E53R, V92M, W93Q, F96V
notes: also called TAR1-5-19CH d1CK
B7: dAb3CH/TAR1-5CK (Fab, V domains shown)
V domain 1: DIQMTQSPSSLSASVGDRVTITCRASQSVKEFLWWYQQKPGKAPKLLIYMASNLQSGVPSRFSGSGSGTDFTLTISSLQPEDFATYYCQQKFKLPRTFGQGTKVEIK
V domain 2: B6 V domain 1 with D30F, S31M, Y32N, H34L, S50N, E53V
notes: also called TAR1-5CK d3CH
B8: dAb1 CH/TAR1-5-19CK (Fab, V domains shown)
V domain 1: B6 V domain 1 with D30Y, S31D, Y32A, H34E, S50T, E53R, V92M, W93Q, F96V
V domain 2: B6 V domain 1
notes: also called TAR1-5-19CK d1CH
B9: TAR1-5CH/dAb1 CK (Fab, V domains shown)
V domain 1: B6 V domain 1 with D30F, S31M, Y32N, H34L, S50N, E53V
V domain 2: B6 V domain 1 with D30Y, S31D, Y32A, H34E, S50T, E53R, V92M, W93Q, F96V
B10: TAR1-5-19CH/dAb3CK (Fab, V domains shown)
V domain 1: B6 V domain 1
V domain 2: B7 V domain 1
notes: also called TAR1-5-19CH d3CK

target: T1, human TNFα (human, UniProt P01375 77-233); assay: TNF receptor assay (ELISA): inhibition of TNF binding to plate-bound TNF receptor 1-Fc
T1 construct: also called TAR1; TNF alpha
T1 sequence (P01375 77-233 limits assumed): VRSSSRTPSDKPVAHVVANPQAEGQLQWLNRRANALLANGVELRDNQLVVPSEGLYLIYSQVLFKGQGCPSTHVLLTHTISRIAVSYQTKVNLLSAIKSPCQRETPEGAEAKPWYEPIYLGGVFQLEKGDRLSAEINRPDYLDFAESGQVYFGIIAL

Question: Which IC50 does the source give for B1 here?
Answer: ~100 nM

Question: For B2, which IC50 is on record?
Answer: ~30 nM

Question: For B3, which IC50 is on record?
Answer: ~200 nM

Question: With B4 as the binder, how does the IC50 read?
Answer: ~3 nM

target: T1, human TNFα; assay: as above; remark: another data set of the same source

Question: How did the IC50 turn out when B5 was run?
Answer: ~15 nM

target: T1, human TNFα; assay: as above; remark: another data set of the same source

Question: Which IC50 does the source give for B6 here?
Answer: ~6 nM

Question: For B7, which IC50 is on record?
Answer: ~100 nM

Question: For B8, which IC50 is on record?
Answer: ~6 nM

Question: For B9, which IC50 is on record?
Answer: ~90 nM

Question: How did the IC50 turn out when B10 was run?
Answer: ~3 nM
